Assay [1] deals with recombinant human ENTPD2 extracellular domain (residues 29-462) with C-terminal Avi-His6 tag (human, UniProt Q9Y5L3 29-462). Description: cell-based or functional assay.
For assay [2], the target named is T1, cynomolgus ENTPD2, full length, on cells (cynomolgus macaque, UniProt Q9Y5L3 1-495 (human entry)).
T1 chain: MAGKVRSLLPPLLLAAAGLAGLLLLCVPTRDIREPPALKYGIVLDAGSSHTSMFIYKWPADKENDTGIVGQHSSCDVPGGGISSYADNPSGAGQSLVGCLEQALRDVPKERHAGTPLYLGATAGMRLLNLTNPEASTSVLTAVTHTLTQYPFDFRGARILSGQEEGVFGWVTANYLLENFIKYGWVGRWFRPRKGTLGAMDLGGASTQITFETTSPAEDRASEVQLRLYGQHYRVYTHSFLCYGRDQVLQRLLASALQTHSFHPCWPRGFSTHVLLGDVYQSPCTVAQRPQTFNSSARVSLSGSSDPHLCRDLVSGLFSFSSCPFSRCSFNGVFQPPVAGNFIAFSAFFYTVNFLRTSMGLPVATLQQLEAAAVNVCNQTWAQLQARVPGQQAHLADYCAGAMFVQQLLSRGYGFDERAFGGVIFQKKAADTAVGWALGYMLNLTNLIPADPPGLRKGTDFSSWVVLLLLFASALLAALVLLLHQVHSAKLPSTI
Description: cell-based or functional assay.

Assay [3] addresses T2, human ENTPD2, full length, on cells (human, UniProt Q9Y5L3 1-495).
T2 sequence: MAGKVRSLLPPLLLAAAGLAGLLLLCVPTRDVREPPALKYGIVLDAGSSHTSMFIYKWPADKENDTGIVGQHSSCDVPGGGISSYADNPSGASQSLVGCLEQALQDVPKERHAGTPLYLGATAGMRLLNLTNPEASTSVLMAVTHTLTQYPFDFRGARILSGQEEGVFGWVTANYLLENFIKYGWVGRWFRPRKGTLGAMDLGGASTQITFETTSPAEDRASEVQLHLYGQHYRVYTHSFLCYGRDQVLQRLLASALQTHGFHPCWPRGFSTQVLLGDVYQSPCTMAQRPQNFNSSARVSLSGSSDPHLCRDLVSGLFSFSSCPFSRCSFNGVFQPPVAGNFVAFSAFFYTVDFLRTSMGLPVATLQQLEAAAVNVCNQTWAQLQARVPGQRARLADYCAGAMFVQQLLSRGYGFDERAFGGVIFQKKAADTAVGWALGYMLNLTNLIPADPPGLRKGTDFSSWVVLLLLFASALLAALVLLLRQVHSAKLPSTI
Description: cell-based or functional assay.

The target of assay [4] is T1, cynomolgus ENTPD2, full length, on cells. The experiment in a line: FACS.
The target of assay [5] is T3, mouse ENTPD2, full length, on cells (mouse, UniProt O55026 1-495).
T3 sequence: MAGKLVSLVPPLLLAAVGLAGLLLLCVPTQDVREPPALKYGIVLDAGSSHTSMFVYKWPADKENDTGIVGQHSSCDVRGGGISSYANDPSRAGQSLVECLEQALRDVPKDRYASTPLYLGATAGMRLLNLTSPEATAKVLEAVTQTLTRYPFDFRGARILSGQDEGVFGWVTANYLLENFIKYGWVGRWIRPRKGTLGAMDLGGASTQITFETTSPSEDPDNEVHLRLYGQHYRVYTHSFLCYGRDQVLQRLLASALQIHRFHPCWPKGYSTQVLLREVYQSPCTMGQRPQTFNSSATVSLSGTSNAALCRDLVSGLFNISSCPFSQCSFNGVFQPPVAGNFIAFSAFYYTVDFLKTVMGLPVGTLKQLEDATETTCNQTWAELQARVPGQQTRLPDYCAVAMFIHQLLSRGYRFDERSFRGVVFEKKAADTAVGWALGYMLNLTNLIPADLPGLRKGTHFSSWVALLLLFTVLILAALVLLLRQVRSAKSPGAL
Description: cell-based or functional assay.

The target of assay [6] is T2, human ENTPD2, full length, on cells. The experiment in a line: flow cytometry on human ENTPD2 engineered B16LM3 clone B5 cells (human ENTPD2 expressed, endogenous mouse ENTPD2 knocked out); anti-mouse IgG-AF647 secondary. The text names the antibody as mAb13.

Here are results for six molecules from patent publication US20240336701A1 (Novartis, published 2024).

B1: ANTI-HUMAN ENTPD2 MAB17 (antibody, human IgG1, kappa, V domains shown)
VH: EVQLQQFGAELVKPGASVKISCKASGYTFTDYNMDWVKQSHGKSLEWIGDINPKYDISTYNQQFKGKATLTVDKSSSTAYMELRSLTSEDTAVYYCARRGFFLYYGINYYYFDVWGAGTTVTVSS
VL: QIVLTQSPAIMSASLGEEITLTCSASSSVSYIHWYQQKSGTSPTLLIYSTSNLASGVPSRFSGSGSGTFYSLTISSVEAEDAADYYCHQWSSYPWTFGGGTKLEIKR
Take B1: the “ENTPD2 Biochemical Assay at 1 uM ATP IC50” value (“ENTPD2 Biochemical Assay” for short) in assay [1] is 0.27 nM. In addition, in assay [2], the “Cyno ENTPD2 NIH/3T3 Assay % inhibition” value came out at 91% and the “Cyno ENTPD2 NIH/3T3 Assay IC50” value is 1 nM. Further, in assay [3], the “Human ENTPD2 NIH/3T3 Assay % inhibition” value stood at 98%, the “Human ENTPD2 NIH/3T3 Assay IC50” value turned out to be 0.6 nM, the “RKO Assay % inhibition” value was 96% and the “RKO Assay IC50” value worked out at 0.5 nM.

B2: ANTI-HUMAN ENTPD2 MAB16 (antibody, human IgG1, kappa, V domains shown)
VH: DIQLQESGPGLVKPSQSLSLTCSVTGYSITSGYYWNWIRQFPGNKLEWMGYISYDGDNNYNPSLKNRISITRDTSKNQFFLKLSSVTTEDTATYYCAGGYYRYGLSYYYVMDYWGQGTSVTVSS
VL: DTVLTQSPASLAVSLGQRATISCKASQSVDYDGNSYMNWYQQKPGQPPKLLIYAASNLESGIPARFSGSGSGTDFTLNIHPVEEEDAATYYCQQSNEDPPTFGGGTKLEIKR
In the case of B2, the “ENTPD2 Biochemical Assay” value in assay [1] stood at 77.3 nM. Moreover, in assay [2], the “Cyno ENTPD2 NIH/3T3 Assay % inhibition” value stood at 5% and the “Cyno ENTPD2 NIH/3T3 Assay IC50” value was more than 133 nM. In assay [3], the “Human ENTPD2 NIH/3T3 Assay % inhibition” value was 30% and the “Human ENTPD2 NIH/3T3 Assay IC50” value was more than 133 nM.

B3: ANTI-HUMAN ENTPD2 MAB1 (antibody, human IgG1, kappa, V domains shown)
VH: EVQLVQSGAEVKKPGESLKISCKASGYTFTDYNMDWVRQMPGKGLEWMGDINPKYDISTYNQQFKGQVTISADKSIRTAYLQWSSLKASDTAMYYCARRGFFLYYGINYYYFDVWGQGTLVTVSS
VL: DIQLTQSPSSLSASVGDRVTITCSASSSVSYIHWFQQKPGKAPKLLIYSTSNLASGVPSRFSGSGSGTFFTLTISSLQPEDFATYFCHQWSSYPWTFGQGTKVEIKR
B3: the “ENTPD2 Biochemical Assay” value in assay [1] stood at 0.52 nM. Besides, in assay [2], the “Cyno ENTPD2 NIH/3T3 Assay % inhibition” value came out at 91% and the “Cyno ENTPD2 NIH/3T3 Assay IC50” value stood at 4.1 nM. In assay [3], the “Human ENTPD2 NIH/3T3 Assay % inhibition” value was found to be 92%, the “Human ENTPD2 NIH/3T3 Assay IC50” value is 1.1 nM, the “RKO Assay % inhibition” value stood at 97% and the “RKO Assay IC50” value was found to be 0.8 nM.

B4: ANTI-mouse ENTPD2 MAB13 (antibody, mouse IgG2a, kappa, V domains shown)
VH: QVQLVQSGAELKQPGQSVKISCKASGYTFTHYGMNWVKQAPGQGLKWMGWINTDTGNPTYADDFKGRFVFSLDTSVSTAYLQISNLKNEDTATYYCVRYGTLYSGYGFFFDSWGQGTLVTVSS
VL: DIMMTQSPSSLSVSAGEKATITCKSSQSLFNSNTNKNYLNWYLQKPGQSPKLLFYYASTRHTGVPDRFIGSGSGTDFTLTITSVQDEDLADYYCQQWYSYPWTFGPGTKLEIKR
notes: also called Anti-ENTPD2 mAb13
B4: the binding result in assay [4] and in assay [6] was “no binding” each time. The “ENTPD2 Functional Assay IC50 (nM), mouse ENTPD2 NIH/3T3 cells” value (shortened to “ENTPD2 Functional Assay IC50 (nM)”) in assay [5] is 2.8 nM.

B5: ANTI-mouse ENTPD2 MAB15 (antibody, mouse IgG2a, kappa, V domains shown)
VH: QVQLVQSGAELKQPGQSVKISCKASGYTFHHYGMNWVKQAPGQGLKWMGWINTDTGNPTYADDFKGRFVFSLDTSVSTAYLQISNLKNEDTATYYCVRYGTLYSGYGFFFDSWGQGTLVTVSS
VL: DIMMTQSPSSLSVSAGEKATITCKSSQSLFNSNTNKNYLNWYLQKPGQSPKLLFYYASTRHTGVPDRFIGSGSGTDFTLTITSVQDEDLADYYCQQWYSYPWTFGPGTKLEIKR
With B5, the “ENTPD2 Functional Assay IC50 (nM)” value in assay [5] came to 5.9 nM.

B6: ANTI-mouse ENTPD2 MAB14 (antibody, mouse IgG2a, kappa, V domains shown)
VH: QVQLVQSGAELKQPGQSVKISCKASGYTFWHYGMNWVKQAPGQGLKWMGWINTDTGNPTYADDFKGRFVFSLDTSVSTAYLQISNLKNEDTATYYCVRYGTLYSGYGFFFDSWGQGTLVTVSS
VL: DIMMTQSPSSLSVSAGEKATITCKSSQSLFNSNTNKNYLNWYLQKPGQSPKLLFYYASTRHTGVPDRFIGSGSGTDFTLTITSVQDEDLADYYCQQWYSYPWTFGPGTKLEIKR
For B6, the “ENTPD2 Functional Assay IC50 (nM)” value in assay [5] turned out to be 4.6 nM.
